Test results taken from PMC7138820, “Acetylation of histone H3K27 signals the transcriptional elongation for estrogen receptor alpha” (Communications Biology, 2020).

Target: the molecule itself
Test: crystal structure; AFF4 900–1163, sitting-drop vapor diffusion at 16 °C, 2.2 M NaH2PO4, 0.4 M K2HPO4, 0.1 M MES pH 6.6; SAD phasing; 2.2 Å

B1: AFF4 fragment encompassing residues 900–1163 (crystallised) (domain or fragment, human, UniProt Q9UHB7 900-1163, looked up)
chain: KPRRTKLVFDDRNYSADHYLQEAKKLKHNADALSDRFEKAVYYLDAVVSFIECGNALEKNAQESKSPFPMYSETVDLIKYTMKLKNYLAPDATAADKRLTVLCLRCESLLYLRLFKLKKENALKYSKTLTEHLKNSYNNSQAPSPGLGSKAVGMPSPVSPKLSPGNSGNYSSGASSASASGSSVTIPQKIHQMAASYVQVTSNFLYATEIWDQAEQLSKEQKEFFAELDKVMGPLIFNASIMTDLVRYTRQGLHWLRQDAKLIS
notes: A selenomethionyl derivative was made for SAD phasing; also called AFF4 C-terminal dimerization domain; AFF4 homodimerization domain; source: E. coli BL21(DE3) codon-plus RIL, purified (Ni-chelating resin, HiTrap SP, Superdex 75); not shown: His, N-terminal, cleaved; SUMO, N-terminal, cleaved
- binding result: binds
